# Measurements reported in PMC12378428.
# Target: hSOX2-HMG (Homo sapiens, UniProt P48431)
# Assay: EMSA
binder,measurement,value
P1/P2 SOX2 binding DNA (dsDNA) DNA 1: GGAAACAATGGA DNA 2: TCCATTGTTTCC,Kd,~610 nM
